According to the supplement of paper PMC9732359:
± gives the uncertainty stated by the source.

Assay: protein stability index of a GFP-peptide fusion (yeast GPS) (PSI 1-4); higher = more stable; sorted into four equal gates, so the index is relative within each strain
Procedure, shortened: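 Tiled 17-residue peptides from yeast proteins were fused downstream of GFP on a plasmid that also expresses Cherry, and the pooled library was carried in yeast. Mid-log cultures grown in leucine-free medium were sorted into four equal gates by GFP/Cherry fluorescence ratio. Plasmids from each gate were PCR-amplified and Illumina-sequenced, and reads were assigned to strains by barcodes. Each peptide's protein stability index is the sum, over gates, of the gate's read frequency multiplied by its gate number.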

| Sequence | protein stability index (doa10∆) | protein stability index (pdr5∆) | protein stability index (san1∆) | protein stability index (ubr1∆) |
| --- | --- | --- | --- | --- |
| SLPRFSKPVLIVGQKNL [DIS3] | 2.2 ± 0.089 | 2.42 ± 0.074 | 1.77 ± 0.082 | 1.7 ± 0.12 |
| NDIFERIATEASKLAAY [HTB1] | 1.93 ± 0.23 | 1.34 ± 0.11 | 1.19 ± 0.17 | 1.34 ± 0.24 |
| LTVIEKLDSKKILPTDI [SRP68] | 2.71 ± 0.13 | 3 ± 0.12 | 2.95 ± 0.1 | 2.71 ± 0.061 |
| DKRFSGSLKLPNCPRPN [RPL1A] | 2.77 ± 0.073 | 3.05 ± 0.052 | 2.94 ± 0.051 | 2.6 ± 0.046 |
| LLTCYELEKKYHGNECE [SRB8] | 2.71 ± 0.082 | 3 ± 0.061 | 3.3 ± 0.068 | 3.21 ± 0.055 |
| DVFNLLPNLGTPDDDEI [RPN8] | 1.96 ± 0.071 | 2.02 ± 0.079 | 1.43 ± 0.12 | 1.43 ± 0.056 |
| EKNGGLGWDLDAIIPFA [FAS2] | 3.14 ± 0.098 | 3.22 ± 0.13 | 3.28 ± 0.066 | 3.08 ± 0.068 |
| DITGDIRNEGSDAEEEE [ISW2] | 2.83 ± 0.16 | 3.1 ± 0.1 | 3.05 ± 0.089 | 2.91 ± 0.068 |
| ALECRLASAIASGLLRA [CSN12] | 1.58 ± 0.072 | 2.08 ± 0.082 | 1.77 ± 0.1 | 1.94 ± 0.075 |
| NECIASTSNALKVLSGD [SNF12] | 2.89 ± 0.059 | 2.86 ± 0.07 | 2.86 ± 0.05 | 2.79 ± 0.062 |
| LGSKKELGISLEHPYGK [SNU114] | 3.08 ± 0.11 | 2.99 ± 0.13 | 3.1 ± 0.15 | 3.28 ± 0.088 |
| HIPRLIPKQLLDDEKIF [YJL039C/NUP192] | 1.44 ± 0.18 | 1.54 ± 0.088 | 1.87 ± 0.19 | 1.31 ± 0.08 |
| GDANNRWDKEEYQSLMS [SMC1] | 3.36 ± 0.21 | 3.03 ± 0.29 | 3.05 ± 0.28 | 3.21 ± 0.073 |
| LEEKILAKKTHKQELQD [SMC4] | 2.95 ± 0.093 | 3.21 ± 0.074 | 2.88 ± 0.072 | 2.85 ± 0.073 |
| KNPHDIIEGINAGEIEI [RPL12A] | 2.66 ± 0.075 | 2.44 ± 0.075 | 2.22 ± 0.096 | 2.34 ± 0.06 |
| KKMTKKAKRSNLYTPKA [PRP8] | 2.9 ± 0.059 | 2.19 ± 0.038 | 2.39 ± 0.059 | 2.3 ± 0.031 |
| FSQEALQYVVERVGKRT [FAS1] | 1.07 ± 0.091 | 1.24 ± 0.11 |  | 1.17 ± 0.09 |
| GTSVYLVDKRIDMLPML [DIS3] | 1.89 ± 0.18 |  |  | 2.12 ± 0.25 |
| LNQIATLKIHLKKFLQE [IRR1] | 2.17 ± 0.18 | 1.91 ± 0.22 |  |  |
| LLPLVVSNISCLTGTVA [ECM29] | 1.25 ± 0.041 | 1.38 ± 0.034 | 1.38 ± 0.094 | 1.45 ± 0.037 |
| LNAINNAEKTGKRQVLL [RPS22B] | 3.35 ± 0.066 | 3.24 ± 0.078 | 3.26 ± 0.072 | 3.17 ± 0.05 |
| FLERKCVHMVYEYAEHD [SSN3] | 1.71 ± 0.061 | 1.67 ± 0.071 | 1.69 ± 0.09 | 1.83 ± 0.046 |
| KIMNVTTDSLTKVLQAD [YMR129W/POM152] | 3.25 ± 0.068 | 3.05 ± 0.068 | 3.12 ± 0.04 | 3.23 ± 0.064 |
| DPELLRSYIFGGHVSQY [RPL5] | 3.16 ± 0.083 | 3.58 ± 0.13 | 3.33 ± 0.056 | 3.17 ± 0.14 |
| EIEQNTELLDEFIAAVN [RPN10] | 3.36 ± 0.082 | 3.32 ± 0.11 | 2.79 ± 0.099 | 3.16 ± 0.082 |

| Sequence | protein stability index (doa10∆) | protein stability index (pdr5∆) | protein stability index (san1∆) | protein stability index (ubr1∆) |
| --- | --- | --- | --- | --- |
| KKGKSSDKDATTDGKND [RPN1] |  | 3.28 ± 0.2 | 3.44 ± 0.16 | 3.52 ± 0.2 |
| NKEGTLEQREQNENLPS [SSN2] | 3.02 ± 0.11 | 3.06 ± 0.074 | 3.09 ± 0.057 | 3.05 ± 0.057 |
| DARGVIGVIAGGGRVDK [RPL2A] | 3.18 ± 0.093 | 3.11 ± 0.11 | 3.06 ± 0.11 | 2.86 ± 0.071 |
| LHIHGSSNPLGITGNLD [COB] | 2.92 ± 0.087 | 2.91 ± 0.078 | 2.7 ± 0.05 | 2.66 ± 0.054 |
| NVETYEQILQWVTEVLG [BRR2] | 1.83 ± 0.065 | 1.75 ± 0.06 | 1.77 ± 0.089 | 2 ± 0.082 |
| PLPHRVQKSTKTFSYKR [RPL20A] | 2.39 ± 0.058 | 2.93 ± 0.051 | 2.63 ± 0.057 | 2.38 ± 0.043 |
| NVKVIMATNRADTLDPA [RPT3] | 2.67 ± 0.1 | 2.07 ± 0.086 | 1.94 ± 0.22 | 2.44 ± 0.057 |
| KSVEKTMIKKTTLVTRR [SMC3] | 3.17 ± 0.23 | 3.19 ± 0.12 | 2.91 ± 0.066 | 3.4 ± 0.2 |
| NALYDTLLESNLCKIIE [RPN6] | 2.07 ± 0.068 | 2.48 ± 0.079 | 2.01 ± 0.065 | 2.41 ± 0.082 |
| KPKAVARKSKEEREAAA [RPC53] | 2.57 ± 0.19 | 3.12 ± 0.1 | 2.61 ± 0.15 | 2.64 ± 0.17 |
| IPHDLNFLQESYEVEHV [TAF14] | 3.16 ± 0.096 | 3.33 ± 0.087 | 2.85 ± 0.07 | 3.12 ± 0.056 |
| VITALKEPPRDRKKDKN [RPL12A] | 2.48 ± 0.08 | 2.61 ± 0.12 | 2.37 ± 0.1 | 1.85 ± 0.063 |
| LYPIFLLDDKKLMDEDS [YJR042W/NUP85] | 2.01 ± 0.09 | 1.84 ± 0.14 | 1.38 ± 0.29 | 1.66 ± 0.057 |
| FLKERLMEASDAFRVHI [RPB2] | 1.66 ± 0.073 | 1.7 ± 0.12 | 2 ± 0.15 | 1.74 ± 0.1 |
| LAIDNMYILGMCVSKGN [YCG1] | 2.19 ± 0.069 | 2.02 ± 0.061 | 2.27 ± 0.089 | 2.42 ± 0.057 |
| VSECIILGQTMSIGTGS [RPO31] | 2.06 ± 0.078 | 2 ± 0.061 | 1.89 ± 0.086 | 2.58 ± 0.055 |
| KALQSIGQLIGEVMKEL [RPT4] | 3.35 ± 0.092 | 3.17 ± 0.15 | 3.39 ± 0.095 | 3.36 ± 0.058 |
| TNEFVGSPSLTSPQYIP [NUT1] | 2.85 ± 0.057 | 3.04 ± 0.043 | 3.06 ± 0.035 | 2.93 ± 0.032 |
| IKIGIRVMKSLSINEKD [YCG1] | 1.49 ± 0.087 | 1.61 ± 0.061 | 1.36 ± 0.2 | 1.56 ± 0.091 |
| EKLKQFSWISVVNDLVG [SIR3] | 1.61 ± 0.052 | 1.99 ± 0.058 | 1.53 ± 0.08 | 1.55 ± 0.034 |
| ELKTRDATNTSYKMIQL [SWP82] | 3.39 ± 0.1 | 3.5 ± 0.078 | 3.16 ± 0.059 | 3.29 ± 0.047 |
| FSVRTKDSNKDVVVEGL [RPL10] | 2.14 ± 0.051 | 2.32 ± 0.055 | 2.13 ± 0.073 | 2.77 ± 0.054 |
| NANTGFSFGGTQTGQNT [YGL172W/NUP49] | 3.42 ± 0.14 | 3.21 ± 0.11 | 3.23 ± 0.086 | 3.49 ± 0.11 |
| TMRRQKLTILQEGIEAI [RET1] | 2.39 ± 0.076 | 2.67 ± 0.051 | 2.8 ± 0.078 | 2.96 ± 0.062 |
